The record followed here is patent US8680233B2, “Heteropeptides useful for reducing nonspecific adsorption” (Valorisation-Recherche, Limited Partnership, priority 2009, dated 2014).

The nature of series [1]: Secondary structure of peptide SAM by FT-IR (mid-IR amide band). The series is classed as physicochemical. To be noted: peptide SAM on gold-coated SPR sensor. How it is done: Microscope slides (BK7, 22×22 mm) were coated with a 3 nm titanium (Ti) adhesion layer and a 50 nm gold (Au) layer (purity 99.99%, ESPI metals) using a Cressington™ 308R sputter coater. These Au-coated SPR slides were immersed for at least 16 h in a 5 mM peptide solution in absolute ethanol to form a well-ordered monolayer (Masson, J. F. et al. Talanta 2004, 64: 716). Four replicates were prepared for each 3-MPA-peptide. The SAM formed on the SPR sensors was extensively rinsed with DMF and ethanol and dried. The mid-IR spectrum of the peptide monolayers immobilized on the SPR sensors was measured in attenuated total reflectance (ATR). Mid-IR spectra were recorded using a BRUKER TENSOR® 27 equipped with a Ge-ATR module.
The 3D structure of the peptides as SAMs is observed with the amide band visible in FT-IR. Peptides adopting an α-helix configuration are showing a strong amide band at 1645 cm^−1, while peptides auto-assembling in the β-sheet configuration leads to a shifted amide at 1675 cm^−1. Every peptide structure investigated in Table 1 adopted an α-helix configuration except for 3-MPA-HHHDD-OH, as shown in FIG. 3.
Peptides adopt secondary conformation, which plays a significant role in their biological activity. For peptides in solution, the secondary conformation is measured with CD, while peptides immobilized on a surface can be analyzed with mid-IR spectroscopy of the amide bands (Duevel, R. V., Corn, R. M., 1992. Analytical Chemistry 64(4), 337-342; Sakurai, T. et al., 2006. Journal of Peptide Science 12(6), 396-402). As listed in Table II, the secondary structure of most peptides adopted an α-helical conformation, with the exception of 3-MPA-DSDSD-OH, which adopted an extended conformation. As noted above, most peptides in the form of 3-MPA-peptide-OH adopt an α-helical conformation. Generally, mid-IR and CD agreed in the determination of the structures on surfaces and in solution, with the exception of one peptide. […] No relationship between structure and nonspecific adsorption could be established.

The nature of series [2]: Advancing contact angle in PBS on peptide SAMs. The class given is physicochemical. The conditions noted are these: average of four replicates.
A short description of series [3]: Capillary electrophoresis, global charge of the peptide. The class given is physicochemical. How it is done:
Capillary electrophoresis was performed to determine if this difference of configuration is due to the global charge of the peptide.

The nature of series [4]: Surface concentration of the peptide monolayer on Au by SPR. The series is classed as physicochemical. The conditions noted are these: peptide SAM on Au SPR sensor; average of four replicates. On the procedure: The surface coverage for each monolayer was measured according to the change in response of the SPR sensor in PBS for the bare Au surface relative to the peptide-coated Au surface. To measure the formation of the monolayers, each SPR sensor was mounted on a custom-made SPR instrument in the Kretschmann configuration based on a dove prism with wavelength interrogation as previously described (Bolduc et al., 2009, supra). An Ocean Optics™ USB4000 fibre optic spectrometer ranging from 550 to 850 nm was used to acquire the spectral information processed with Matlab to obtain the SPR sensorgram. A 25 μL Teflon fluidic cell positioned on top of the SPR sensors was used to inject the solutions required to functionalize with the recognition element and detect the analytes of interest. The SPR response was acquired at a frequency of 1 Hz. The s-polarized reference was acquired in PBS buffer before monitoring a 5 minute baseline in p-polarization. PBS was replaced with crude bovine serum (76 mg/mL protein) for 20 minutes and rinsed with PBS for 5 minutes to quantify the amount of non-specifically adsorbed proteins.
The formation of monolayers on Au was measured to ensure that the peptide monolayers are indeed binding to the SPR sensor. The surface concentration of the monolayer provides a measurement of the number of molecules per square cm (i.e. the density of the monolayer at the surface). The surface concentration (Γ) of peptide-like self-assembled monolayers (SAMs) was characterized with the measurement of the SPR response before the formation of the SAMs and after their formation on the Au surface of the SPR sensor. The difference of SPR wavelength (λSPR) between these two measurements increases with the increasing surface concentration of the SAMs following the equation proposed by Jung et al. (Jung, L. S. et al. Langmuir 1998, 14: 5636): Γ=ρ(−0.5/d)ln(1−(ΔλSPRm^−1(ηSAM−ηPBS)^−1)) (eq. 1)
(In general: Surface plasmon resonance follows binding to a sensor surface in real time, without labels.)

For series [5], the target named is recombinant soluble His-tagged CD36 (Homo sapiens, UniProt P16671). Put plainly: SPR screening of peptide ligands on a CD36 functionalized sensor. The class given is binding. The conditions noted are these: CD36 functionalized sensor, linear Langmuir plot. On the procedure:
The SPR sensors for screening small peptidic ligand binding to a recombinant soluble His-tagged CD36 functionalized surfaces were prepared as described above. Five ligands were investigated: EP80317, CP-2B(i), CP-3(iv), CP-2A(v) and DBG-178(27) with concentrations ranging from 30 μM to 100 nM except for EP80317. The latter was used for optimizing the system with solutions ranging from 1 mM to 100 nM. EP80317 (HAIC-2MeDTrp-DLys-Trp-D-Phe-Lys-NH2) is a positive control of known activity, CP-2B(i) (His-DTrp-AzaLeu-Trp-DPhe-Ala-NH2) is a negative control, and CP-3(iv) (Ala-DTrp-Ala-AzaPhe-DPhe-Lys-NH2), CP-2A(v) (His-DTrp-AzaGly-Trp-DPhe-Lys-NH2) and DBG-178(27) (His-DTrp-Ala-azaTyr-DPhe-Lys-NH2) are novel CD36 ligands (see PCT publication No. WO 08/154,738). Another negative control was accomplished by exposing the His-tagged hDHFR functionalized surface to the same concentration of CD36 peptidic ligand. Two different approaches were used to remove the His-tagged CD36-Cu complex from the SPR sensors: concentrated histidine solution or saturated EDTA solution.
This is the case of the CD36-ligand system investigated herein, where the ligands are small peptides of about 800 to 1000 g/mol. Indeed, according to the aforementioned principle, the binding of the small peptides to the CD36 receptor should be close to the limit of detection, thus providing unreliable affinity measurements. […] This could be a consequence of a large conformational change of the CD36 receptor upon binding of specific ligands, thus providing the amplification sufficient for SPR signal detection.
(§1) The SPR setup was used for investigating the structure-activity relationships of various CD36 peptidic ligands. […] The measured KD's were compared to the EC50 values obtained in the activated src-kinase assay following CD36 receptor activation by the tested peptides. […] For the src-kinase cellular assay, the response sensitivity (EC50) for the tested peptides (in decreasing order) was as follows: EP80317>CP-2A(v)>CP-3(iv)>DBG-178(27)>CP-2B(i). With SPR, the binding affinity to CD36, in decreasing order, was: DBG-178(27)>CP-2A(v)>EP80317>CP-3(iv)>CP-2B(i). […] For CD36-peptidic ligands, a correlation appears between the affinity binding of the small peptides for CD36 as determined by SPR and their efficiency to produce a cellular response in the src kinase assay. Thus, SPR appears as a selective and sensitive method to screen for CD36 ligands.

A further series concerns the target CD36 receptor (Homo sapiens, UniProt P16671). Description: SRC-kinase cellular assay following CD36 receptor activation. The class given is cell-based. To be noted: activation of src-kinases after CD36 receptor activation.
Source text: as §1

Numbered stars: 1 amine (or outer) side, 2 acyl side, 3 side chain; on linkers, the order of the positions; unused ones are H or OH. Square brackets hold non-standard residues; d marks the D form. Peptide text beside a SMILES is read from it. azaLeu = CC(C)CN(N[*:1])C(=O)[*:2]; Mpa = O=C(O)CCS Where only a bound is given, the exact number is not on record here.

CD36 receptor, sequence (P16671 whole entry): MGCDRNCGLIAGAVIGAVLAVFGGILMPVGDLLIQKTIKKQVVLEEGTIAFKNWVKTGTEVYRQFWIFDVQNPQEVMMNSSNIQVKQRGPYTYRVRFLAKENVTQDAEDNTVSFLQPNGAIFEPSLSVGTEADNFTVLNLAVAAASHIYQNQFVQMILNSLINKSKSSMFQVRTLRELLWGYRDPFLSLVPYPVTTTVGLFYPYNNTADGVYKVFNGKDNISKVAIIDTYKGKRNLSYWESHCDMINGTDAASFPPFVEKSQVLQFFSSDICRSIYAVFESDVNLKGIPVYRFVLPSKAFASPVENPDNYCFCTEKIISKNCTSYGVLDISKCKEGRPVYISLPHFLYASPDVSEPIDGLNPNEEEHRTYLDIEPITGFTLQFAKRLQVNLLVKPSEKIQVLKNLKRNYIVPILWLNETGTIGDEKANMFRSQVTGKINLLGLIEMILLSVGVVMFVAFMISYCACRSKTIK
recombinant soluble His-tagged CD36, sequence (P16671 30-439 limits assumed): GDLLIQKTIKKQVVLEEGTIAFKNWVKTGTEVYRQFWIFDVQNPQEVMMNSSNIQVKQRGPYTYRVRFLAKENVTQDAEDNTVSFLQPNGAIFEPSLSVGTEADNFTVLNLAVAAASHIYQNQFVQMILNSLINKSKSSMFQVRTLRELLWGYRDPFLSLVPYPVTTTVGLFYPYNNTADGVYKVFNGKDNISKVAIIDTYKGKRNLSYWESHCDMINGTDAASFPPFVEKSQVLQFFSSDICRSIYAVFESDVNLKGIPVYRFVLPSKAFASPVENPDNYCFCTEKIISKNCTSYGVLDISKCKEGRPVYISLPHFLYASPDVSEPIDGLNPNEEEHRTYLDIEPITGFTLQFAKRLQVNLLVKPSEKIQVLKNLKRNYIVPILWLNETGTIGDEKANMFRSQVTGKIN

Take “3-MPA-HHHDD-OH ([Mpa]HHHDD-OH; SMILES O=C(O)C[C@H](NC(=O)[C@H](CC(=O)O)NC(=O)[C@H](Cc1c[nH]cn1)NC(=O)[C@H](Cc1c[nH]cn1)NC(=O)[C@H](Cc1c[nH]cn1)NC(=O)CCS)C(=O)O)”: the “Secondary Structure FT-IR (SAM)” value in series [1] is “β-sheet”. Also, the “Contact angle in PBS θC_PBS” value in series [2] was 37.8 °. For the same compound, in series [3], the “Global charge of the peptide” value is “about −1”. In addition, the “Surface density ΔΓSAM” value in series [4] is 0.230 10^15 molecule/cm^2.

For the compound “3-MPA-HHDDD-OH ([Mpa]HHDDD-OH; SMILES O=C(O)C[C@H](NC(=O)[C@H](CC(=O)O)NC(=O)[C@H](CC(=O)O)NC(=O)[C@H](Cc1c[nH]cn1)NC(=O)[C@H](Cc1c[nH]cn1)NC(=O)CCS)C(=O)O)”, the “Global charge of the peptide” value in series [3] is “about −1”.

Consider “3-MPA-HHHHD-OH ([Mpa]HHHHD-OH; SMILES O=C(O)C[C@H](NC(=O)[C@H](Cc1c[nH]cn1)NC(=O)[C@H](Cc1c[nH]cn1)NC(=O)[C@H](Cc1c[nH]cn1)NC(=O)[C@H](Cc1c[nH]cn1)NC(=O)CCS)C(=O)O)”, for which, in series [3], the “Global charge of the peptide” value is reported as “about −1”.

For `CC(C)CN(NC(=O)[C@@H](Cc1c[nH]c2ccccc12)NC(=O)[C@@H](N)Cc1cnc[nH]1)C(=O)N[C@@H](Cc1c[nH]c2ccccc12)C(=O)N[C@H](Cc1ccccc1)C(=O)N[C@@H](C)C(N)=O` [CP-2B(i), His-DTrp-AzaLeu-Trp-DPhe-Ala-NH2, reference compound] (H-H[dW][azaLeu]W[dF]A-NH2), the Kd (usually the concentration at which binding is half-saturated) in series [5] was found to be 1400 nM. Moreover, on CD36 receptor, the EC50 (commonly the concentration that produces a half-maximal response) was over 10000 nM.
